Experimental data as given in publication PMC3299407 (Biochemical Journal, 2011).

Target: the molecule itself
Assay: native gel or EMSA

B1: myc-laforin wild type (pCMVmyc-laforin WT) (natural protein, human, UniProt O95278 1-331, looked up)
chain: MRFRFGVVVPPAVAGARPELLVVGSRPELGRWEPRGAVRLRPAGTAAGDGALALQEPGLWLGEVELAAEEAAQDGAEPGRVDTFWYKFLKREPGGELSWEGNGPHHDRCCTYNENNLVDGVYCLPIGHWIEATGHTNEMKHTTDFYFNIAGHQAMHYSRILPNIWLGSCPRQVEHVTIKLKHELGITAVMNFQTEWDIVQNSSGCNRYPEPMTPDTMIKLYREEGLAYIWMPTPDMSTEGRVQMLPQAVCLLHALLEKGHIVYVHCNAGVGRSTAAVCGWLQYVMGWNLRKVQYFLMAKRPAVYIDEEALARAQEDFFQKFGKVRSSVCSL
- stoichiometry N: 2

B2: myc-laforin S25D (pCMVmyc-laforin S25D) (natural protein, human, UniProt O95278 1-331, looked up)
chain: MRFRFGVVVPPAVAGARPELLVVGDRPELGRWEPRGAVRLRPAGTAAGDGALALQEPGLWLGEVELAAEEAAQDGAEPGRVDTFWYKFLKREPGGELSWEGNGPHHDRCCTYNENNLVDGVYCLPIGHWIEATGHTNEMKHTTDFYFNIAGHQAMHYSRILPNIWLGSCPRQVEHVTIKLKHELGITAVMNFQTEWDIVQNSSGCNRYPEPMTPDTMIKLYREEGLAYIWMPTPDMSTEGRVQMLPQAVCLLHALLEKGHIVYVHCNAGVGRSTAAVCGWLQYVMGWNLRKVQYFLMAKRPAVYIDEEALARAQEDFFQKFGKVRSSVCSL
- stoichiometry N: 2
